In patent US20240409645A1:

T1: mouse IL-2Rβ (mouse) (UniProt P16297)
T1 sequence (looked up): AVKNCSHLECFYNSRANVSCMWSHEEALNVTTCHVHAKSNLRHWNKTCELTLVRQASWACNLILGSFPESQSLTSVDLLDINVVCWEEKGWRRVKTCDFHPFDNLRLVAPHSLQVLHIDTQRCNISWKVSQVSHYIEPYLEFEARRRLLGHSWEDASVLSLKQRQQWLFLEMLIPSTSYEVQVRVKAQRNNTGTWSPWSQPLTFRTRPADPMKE

B1: FJ1427_P035MP02E05 (VHH)
VHH: EVQLVESGGGLVQIGGSLRLSCAASGRTFSSITMAYFRQVPGKEHEWVAGINFSGTRTFYADSVKGRFLISRDDAKSTMYLQMNSLKPEDTAVYYCAASPRGFYGPGNALYDYWGQGTQVTVSS
B2: FJ1427_P035MP02F08 (VHH)
VHH: QVQLVESGGGLVQAGGSLRLSCAASGSIFSLNTMGWFRQAPGKEREFVAAISRSGGSATYGDSVKGRFTISTNNAKTTVYLQMNSLKPDDTAVYSCAASAAVGWTTRWSTIDFDSWGQGTQVTVSS
B3: FJ1427 P035MP02A04 (VHH)
VHH: EVQLVESGGGLVQTGGSLRLSCTASGSQFINDVMGWYRQVPGKQRELVADMDDTGSTKYADSVNGRFTILRDSVKNTAYLQMSNLKPEDTGVYYCKAGLWIKGRHSDYWGQGTQVTVSS
B4: FJ1427_P035MP02D06 (VHH)
VHH: EVQLVESGGGLVQTGGSLRLSCAASGSQFINDVMGWYRQVPGKQRELVADMDDTGSTKYADSVKGRFTILRDSVKNTAYLQMSNLKPEDTGVYYCKAGLWIKGRHSDYWGQGTQVTVSS
B5: FJ1427 P035MP02G05 (VHH)
VHH: EVQLVESGGGLVQTGGSLRLSCAASGSQFINDVTGWYRQVPGKQRELVADMDDTGSTKYADSVKGRFTILRDSVKNTAYLQMSNLKPEDTGVYYCKAGLWIKGRHSDYWGQGTQVTVSS
B6: FJ1427_P035MP02G04 (VHH)
VHH: QVQLVESGGGLVQAGGSLRLSCAASGSQFINDVMGWYRQVPGKQRELVADMDDTGSTKYADSVKGRFTILRDSVKNTAYLQMSNLKPEDTGVYYCKAGLWIKGRHFDYWGQGTQVTVSS
B7: FJ1427 P035MP02F04 (VHH)
VHH: EVQLVESGGGLVQTGGSLRLSCAASGSQFINDVMGWYRQVPGKQRELVADMDDTGSTKYADSVKGRFTILRDSVKNTAYLQMSNLKPEDTGVYYCKAGLWIKGRHFDYWGQGTQVTVSS
B8: FJ1427_P035MP02B05 (VHH)
VHH: EVQLVESGGGLVQTGGSLRLSCAASGSQFINDVMGWYRQVPGKQRELVADMDDTGSTKYADSVKGRFTILRDSVKNTAYLQMSNLKPEDTGVYYCKAGLWIKGRHFDYWGQGTQVTVSS
B9: FJ1427_P035MP02A05 (VHH)
VHH: EVQLVESGGGLVQTGGSLRLSCAASGSQFINDVMGWYRQVPGKQRELVADMDDTGSTKYADSVKGRFTILRDSVKNTAYLQMSNLKPEDTGVYYCKAGLWIKGRHSDYWGQGTQVTVSS
B10: FJ1427_P035MP02E03 (VHH)
VHH: EVQLVESGGGSVQTGGSLRLSCVVSGSHFISDVMGWYRQVPGKQRELVADMADGGSVKYGDSVKGRFTILRDSVKNTVTLQMSSLNPEDTGVYYCKAGLWITGRHFDYWGQGTQVTVTS
B11: FJ1427 P035MP02H05 (VHH)
VHH: EVQLVESGGGSVQTGGSLRLSCVVSGSHFISDVMGWYRQVPGKQRELVADMADGGSAKYGDSVKGRFTILRDSVKNTVTLQMSSLNPEDTGVYYCKAGLWITGRHSDYWGQGTQVTVTS
B12: FJ1427_P035MP02F06 (VHH)
VHH: EVQLVESGGGLVQTGGSLRLSCAASGSRFISDFMGWYRQVPGKQRELVADMADGGSARYGDSVKGRFTILRESGNATAYLQMSSLKPEDTGVYYCKAGLWIAGRHFDYWGQGTQVTVSS
B13: FJ1427_P035MP02C07 (VHH)
VHH: QVQLVESGGGLVQAGGSLRLSCAASGRTFSINTMGWFRQAPGKEREFVAAISRSGDSTVYVDSVKGRFTISRDNAKNTVYLQMNTLKPEDTAVYYCATTVAVGWTTRWSTIDFDSWGQGTQVTVSS
B14: FJ1427_P035MP02D04 (VHH)
VHH: QVQLVESGGGLVQTGGSLRLSCAVSGSRFISDVMGWYRQVPGKQRELVADMADGGSAKYADSVKGRFSILRDSVKNTVYLQMSSLKPEDTGIYYCKAGLWIAGRHSDYWGQGTQVTVSS
B15: FJ1427_P035MP02F05 (VHH)
VHH: EVQLVESGGGLVQTGGSLRLSCAVSGSRFISDVMGWYRQVPGKQRELVADMADGGSAKYADSVKGRFSILRDSVKNTVYLQMSSLKPEDTGIYYCKAGLWIAGRHSDYWGQGTQVTVSS
B16: FJ1427 P035MP02C05 (VHH)
VHH: QVQLVESGGGLVQTGGSLRLSCAVSGSRFISDVMGWYRQVPGKQRELVADMADGGSAKYADSVKGRFSILRDSVKNTVYLQMSSLKPEDTGIYYCKAGLWIAGRHSDYWGQGTQVTVSS
B17: FJ1427 P035MP02B07 (VHH)
VHH: EVQLVESGGGLVEAGGSLRLSCAASGRAFNNFPMGWFRQAPGKEREFVAAITWISGSTLYADSVKGRFTISRDKSKNTVYLQMSGLKPEDTALYYCAAALKTITRGQHDYTYWGQGTQVTVSS
B18: FJ1427_P035MP02D07 (VHH)
VHH: EVQLVESGGGLVQAGGSLRLSCAASGRSLSTTEMGWFRQAPGKEREFVAAITWSGRGTMYAESVEGRFAVSRENAKNTVYLQMNSLKPEDTAIYYCAAARRGRAAVRSEGGYDFWGQGTQVTVSS
B19: FJ1427 P035MP02C08 (VHH)
VHH: EVQLVESGGGLVQAGGSLRLSCAASGSTFSRQPMYWFRQAPGKEREFVAAITWSGRGTLYADSVEGRFTISRDNAKNTVYLQMNSLRPDDTAAYYCAAGPYGDAAYRHGRIDSWGQGTQVTVSS
B20: FJ1427_P035MP02G03 (VHH)
VHH: QVQLVESGGGLVQPGGSLGLSCAASGFTFSNYAMSWVRQAPGKGLEWVASITGFGRGTDYADSVKGRFTVSRDNAKNTLYLQMNSLKPEDTAVYYCAKYSSSTYYPPTPARGRDYRGQGTQVTVSS
B21: FJ1427_P035MP02B06 (VHH)
VHH: QVQLVESGGGLVQPGESLGLSCAASGFTFSNYAMSWVRQAPGKGLEWVSSITGAGRGTDYADSVKGRFTISRDNAKNTLYLQMNSLKPEDTAVYYCAKYSSGTYYPPTPVRGTDYRGQGTQVTVSS
B22: FJ1427_P035MP02C04 (VHH)
VHH: QVQLVESGGGLVQPGGSLELSCAASGFTFSNYAMSWVRQAPGKGLEWVSSITGFGRGTDYADSVKGRFTISRDNDKNTLYLQMNSLKPEDTAVYYCARYSSSTYYPPTPARGRDYRGQGTQVTVSS
B23: FJ1427 P035MP02C06 (VHH)
VHH: QLQLVESGGGLVQPGGSLELSCAASGFTFSNYAMSWVRQAPGKGLEWVSSITGFGRGTDYADSVKGRFTISRDNAKNTLYLQMNSLKPEDTAVYYCARYSSSTYYPPTPARGRDYRGQGTQVTVSS
B24: FJ1427 P035MP02D05 (VHH)
VHH: QVQLVESGGGLVQPGESLGLSCAASGFTFSNYAMSWVRQAPGKGLEWVSSITGAGRGTDYADSVKGRFTISRDNAKNTLYLQMNSLKPEDTAVYYCAKYSSGTYYPPTPVRGTDYRGQGTQVTVSS
B25: FJ1427_P035MP02A08 (VHH)
VHH: EVQLVESGGGLVQAGGSLRLSCTVSGDVFVRYTMAWFRQAPGKEREFVATVTDSGRTTEYVDSVKGRFTVSRDNAKNTVYLQMNNLKPEDTAVYYCAANTDYFRIRSLDANTWGQGTQVTVSS
B26: FJ1427 P035MP02D08 (VHH)
VHH: EVQLVESGGGLVQAGGSLRLSCVVSGDVFVRYTMAWFRQAPGKEREFVTSITDSGRTTEYVDSVKGRFTVSRDNAKNTVYLQMNNLKPEDTAVYYCAANTDYFRIRSLDANTWGQGTQVTVSS
B27: FJ1427_P035MP02E08 (VHH)
VHH: EVQLVESGGGLVQAGGSLRLSCVVSGDVFVRYTMAWFRQAPGKEREFVAVVTDSGRTTEYVDSVKGRFTVSRDNAKNTVYLQMNNLKPEDTAVYYCAANTDYFQIRSVDNNAWGQGTQVTVSS
B28: FJ1427_P035MP02F03 (VHH)
VHH: EVQLVESGGGLVQAGGSLRLSCAASGGTFSSYAMGWFRQAPGKEREFVAATTRGGGRTMYAVSTEGRFTCSRDNAKNTVYLLMNSLKPEDTAVYYCAAMTSYYSGTYYPDSSDFDIWGQGTQVTVSS
B29: FJ1427_P035MP02A06 (VHH)
VHH: QVQLQESGGGLVQAGGSLRLSCAASGGTFSSYAMGWFRQAPGKEREFVAATTRGGGRTMYAVSTEGRFTCSRDNDKNTVYLLMNSLKPKDTAVYYCAAMTSYYSGTYYPDSSDFDIWGQGTQVTVSS
B30: FJ1427_P035MP02E04 (VHH)
VHH: EVQLVESGGGLVQAGGSLRLSCAASGGTFSSYAMGWFRQAPGKEREFVAATTRGGGRTMYAVSTEGRFTCSRDNAKNTVYLQMNSLKPKDTAIYYCAAMTSYYSGTYYPDSSDFDIWGQGTQVTVSS
B31: FJ1427 P035MP02H04 (VHH)
VHH: QVQLVESGGGLVQAGDSLRLSCATSGLTFSSYALGWFRQAPGKKREFVAATTRGGGRTMYAVSTEGRFTCSRDNDKNTVYLLMNSLKPKDTAVYYCAAMTSYYSGTYYPDSSDFDIWGQGTQVTVSS
B32: FJ1427_P035MP02B04 (VHH)
VHH: EVQLVESGGGLVQAGGSLGLSCAASGGTFSSYAMGWFRQAPGKEREFVAATTRGGGRTMYAVSTEGRFTCSRDNAKNTVYLQMNSLKPKDTAIYYCAAMTSYYSGTYYPDSSDFDIWGQGTQVTVSS

Molecular target: T1, mouse IL-2Rβ (mouse)
Experiment: P.E. ELISA, coated protein

Point of comparison: B18, P.E. binding ELISA OD 0.046 OD450 nm. Against it:
- B1 — higher, 0.048 OD450 nm
- B2 — higher, 0.048 OD450 nm
- B3 — higher, 0.048 OD450 nm
- B4 — higher, 0.047 OD450 nm
- B5 — higher, 0.048 OD450 nm
- B6 — higher, 0.048 OD450 nm
- B7 — higher, 0.048 OD450 nm
- B8 — higher, 0.048 OD450 nm
- B9 — higher, 0.047 OD450 nm
- B10 — higher, 0.049 OD450 nm
- B11 — higher, 0.049 OD450 nm
- B12 — higher, 0.047 OD450 nm
- B13 — the same, 0.046 OD450 nm
- B14 — higher, 0.048 OD450 nm
- B15 — higher, 0.048 OD450 nm
- B16 — higher, 0.047 OD450 nm
- B17 — the same, 0.046 OD450 nm
- B19 — higher, 0.047 OD450 nm
- B20 — higher, 0.049 OD450 nm
- B21 — higher, 0.047 OD450 nm
- B22 — higher, 0.047 OD450 nm
- B23 — higher, 0.047 OD450 nm
- B24 — higher, 0.049 OD450 nm
- B25 — higher, 0.069 OD450 nm
- B26 — higher, 0.048 OD450 nm
- B27 — higher, 0.058 OD450 nm
- B28 — higher, 0.048 OD450 nm
- B29 — higher, 0.048 OD450 nm
- B30 — higher, 0.048 OD450 nm
- B31 — higher, 0.05 OD450 nm
- B32 — higher, 0.047 OD450 nm
